# Measured values from the Human Domainome abundance scans (Beltran et al. 2025).
# ± gives the uncertainty stated by the source.
# B1: Retinoic acid receptor beta, residues 85 to 161; numbered along this chain, P10826 (parent)
# chain: YKPCFVCQDKSSGYHYGVSACEGCKGFFRRSIQKNMIYTCHRDKNCVINKVTRNRCQYCRLQKCFEVGMSKESVRND
# Variants of: B1
# Test: abundance fitness (aPCA) (normalised: wild type 0, dead -1); higher = more abundant; growth selection in yeast, the domain comes from the species named
# Conditions: Homo sapiens
row,Variant,abundance fitness
1,YKPCFVCQDKSSGYHYGVSACEGCKGFFRRSIQKNMIYTCHRDKNTVINKVTRNRCQYCRLQKCFEVGMSKESVRND,-0.53 ± 0.083
2,YKPCFVCQDKSSGYHYGVSACEGCKGFFRRSIQKNMIYTCHRDKNWVINKVTRNRCQYCRLQKCFEVGMSKESVRND,-0.681 ± 0.15
3,YKPCFVCQDKSSGYHYGVSACEGCKGFFRRSIQKNMIYTCHRDKNSVINKVTRNRCQYCRLQKCFEVGMSKESVRND,-0.562 ± 0.074
4,YKPCFVCQDKSSGYHYGVSACEGCKGFFRRSIQKNMIYTCHRDKNVVINKVTRNRCQYCRLQKCFEVGMSKESVRND,-0.737 ± 0.12
5,YKPCFVCQDKSSGYHYGVSACEGCKGFFRRSIQKNMIYTCHRDKNRVINKVTRNRCQYCRLQKCFEVGMSKESVRND,-0.767 ± 0.12
6,YKPCFVCQDKSSGYHYGVSACEGCKGFFRRSIQKNMIYTCHRDKNCVCNKVTRNRCQYCRLQKCFEVGMSKESVRND,-0.72 ± 0.19
7,YKPCFVCQDKSSGYHYGVSACEGCKGFFRRSIQKNMIYTCHRDKNCVLNKVTRNRCQYCRLQKCFEVGMSKESVRND,-0.096 ± 0.035
8,YKPCFVCQDKSSGYHYGVSACEGCKGFFRRSIQKNMIYTCHRDKNCVMNKVTRNRCQYCRLQKCFEVGMSKESVRND,0.042 ± 0.059
9,YKPCFVCQDKSSGYHYGVSACEGCKGFFRRSIQKNMIYTCHRDKNCVANKVTRNRCQYCRLQKCFEVGMSKESVRND,-0.531 ± 0.068
10,YKPCFVCQDKSSGYHYGVSACEGCKGFFRRSIQKNMIYTCHRDKNCVVNKVTRNRCQYCRLQKCFEVGMSKESVRND,-0.065 ± 0.04
11,YKPCFVCQDKSSGYHYGVSACEGCKGFFRRSIQKNMIYTCHRDKNCVPNKVTRNRCQYCRLQKCFEVGMSKESVRND,-0.417 ± 0.07
12,YKPCFVCQDKSSGYHYGVSACEGCKGFFRRSIQKNMIYTCHRDKNCVTNKVTRNRCQYCRLQKCFEVGMSKESVRND,-0.161 ± 0.055
13,YKPCFVCQDKSSGYHYGVSACEGCKGFFRRSIQKNMIYTCHRDKNCVHNKVTRNRCQYCRLQKCFEVGMSKESVRND,-0.505 ± 0.47
14,YKPCFVCQDKSSGYHYGVSACEGCKGFFRRSIQKNMIYTCHRDKNCVGNKVTRNRCQYCRLQKCFEVGMSKESVRND,-0.605 ± 0.11
15,YKPCFVCQDKSSGYHYGVSACEGCKGFFRRSIQKNMIYTCHRDKNCVFNKVTRNRCQYCRLQKCFEVGMSKESVRND,-0.078 ± 0.055
16,YKPCFVCQDKSSGYHYGVSACEGCKGFFRRSIQKNMIYTCHRDKNCVSNKVTRNRCQYCRLQKCFEVGMSKESVRND,-0.48 ± 0.061
17,YKPCFVCQDKSSGYHYGVSACEGCKGFFRRSIQKNMIYTCHRDKNCVNNKVTRNRCQYCRLQKCFEVGMSKESVRND,-0.376 ± 0.17
18,YKPCFVCQDKSSGYHYGVSACEGCKGFFRRSIQKNMIYTCHRDKNCVWNKVTRNRCQYCRLQKCFEVGMSKESVRND,-0.647 ± 0.13

row,Variant,abundance fitness
1,YKPCFVCQDKSSGYHYGVSACEGCKGFFRRSIQKNMIYTCHRDKNCVIIKVTRNRCQYCRLQKCFEVGMSKESVRND,-0.239 ± 0.1
2,YKPCFVCQDKSSGYHYGVSACEGCKGFFRRSIQKNMIYTCHRDKNCVIAKVTRNRCQYCRLQKCFEVGMSKESVRND,-0.284 ± 0.044
3,YKPCFVCQDKSSGYHYGVSACEGCKGFFRRSIQKNMIYTCHRDKNCVIQKVTRNRCQYCRLQKCFEVGMSKESVRND,-0.328 ± 0.057
4,YKPCFVCQDKSSGYHYGVSACEGCKGFFRRSIQKNMIYTCHRDKNCVIVKVTRNRCQYCRLQKCFEVGMSKESVRND,-0.546 ± 0.092
5,YKPCFVCQDKSSGYHYGVSACEGCKGFFRRSIQKNMIYTCHRDKNCVIGKVTRNRCQYCRLQKCFEVGMSKESVRND,-0.255 ± 0.05
6,YKPCFVCQDKSSGYHYGVSACEGCKGFFRRSIQKNMIYTCHRDKNCVICKVTRNRCQYCRLQKCFEVGMSKESVRND,-0.598 ± 0.11
7,YKPCFVCQDKSSGYHYGVSACEGCKGFFRRSIQKNMIYTCHRDKNCVILKVTRNRCQYCRLQKCFEVGMSKESVRND,-0.218 ± 0.055
8,YKPCFVCQDKSSGYHYGVSACEGCKGFFRRSIQKNMIYTCHRDKNCVIPKVTRNRCQYCRLQKCFEVGMSKESVRND,-0.431 ± 0.066
9,YKPCFVCQDKSSGYHYGVSACEGCKGFFRRSIQKNMIYTCHRDKNCVIKKVTRNRCQYCRLQKCFEVGMSKESVRND,-0.345 ± 0.062
10,YKPCFVCQDKSSGYHYGVSACEGCKGFFRRSIQKNMIYTCHRDKNCVIYKVTRNRCQYCRLQKCFEVGMSKESVRND,-0.37 ± 0.091
11,YKPCFVCQDKSSGYHYGVSACEGCKGFFRRSIQKNMIYTCHRDKNCVIDKVTRNRCQYCRLQKCFEVGMSKESVRND,0.235 ± 0.051
12,YKPCFVCQDKSSGYHYGVSACEGCKGFFRRSIQKNMIYTCHRDKNCVIRKVTRNRCQYCRLQKCFEVGMSKESVRND,-0.43 ± 0.05
13,YKPCFVCQDKSSGYHYGVSACEGCKGFFRRSIQKNMIYTCHRDKNCVIFKVTRNRCQYCRLQKCFEVGMSKESVRND,-0.368 ± 0.13
14,YKPCFVCQDKSSGYHYGVSACEGCKGFFRRSIQKNMIYTCHRDKNCVIEKVTRNRCQYCRLQKCFEVGMSKESVRND,0.003 ± 0.055
15,YKPCFVCQDKSSGYHYGVSACEGCKGFFRRSIQKNMIYTCHRDKNCVITKVTRNRCQYCRLQKCFEVGMSKESVRND,0.017 ± 0.042
16,YKPCFVCQDKSSGYHYGVSACEGCKGFFRRSIQKNMIYTCHRDKNCVIHKVTRNRCQYCRLQKCFEVGMSKESVRND,-0.372 ± 0.059
17,YKPCFVCQDKSSGYHYGVSACEGCKGFFRRSIQKNMIYTCHRDKNCVISKVTRNRCQYCRLQKCFEVGMSKESVRND,-0.116 ± 0.036
18,YKPCFVCQDKSSGYHYGVSACEGCKGFFRRSIQKNMIYTCHRDKNCVIWKVTRNRCQYCRLQKCFEVGMSKESVRND,-0.327 ± 0.071
